In patent publication US12173330B2, “Method for producing hydroxy-L-pipecolic acid” (API CORPORATION, priority 2015, dated 2024) one finds Km and Vmax data, which are given here for three proteins.

Substrate in series [1]: O=C(O)[C@@H]1CCCN1
Briefly: purified protein, by the assay type. Particulars: other: substrate: L-proline, 20 mmol/L 2-oxoglutaric acid, 30° C.

Substrate in series [2]: O=C(O)[C@@H]1CCCCN1
Briefly: purified protein, by the assay type. Particulars: other: substrate: L-pipecolic acid, 20 mmol/L 2-oxoglutaric acid, 30° C.

B1: Xenorhabdus doucetiae FRM16 L-proline cis-4-hydroxylase XdPH, SEQ ID NO: 8 (Xenorhabdus doucetiae) (protein)
chain: MMSAKLLASIELNQEQIEHDLNIVGSEILDVAYSEYACGNWGTITLWNHSGDAGDQTSREYVGQARPTELGQQLDCINQLIRNNFNISLIKSVRIFRSYNGGAIYPHIDYLEFNQGFKRVHLVLKSDRSCLNSEENTVYHMLPGEVWFVDGHSAHSAMSLSRVGKYSLVLDFDSGAKFEDLYSESHTLCVDNLEPDIIHDRQPLPTSLRDSLAHIAEHADEFNIQSILFLATRFHFSYAVSIREYFQLLDECFSRNPYKSVRERYEALKDILVRSGYTSHNVNHFNSLSGVTIG
With B1, the Km (commonly the concentration of substrate that gives half-maximal velocity) in series [1] turned out to be 310 µM. In addition, in series [2], the Km was found to be 300 µM and the Vmax came out at 1.14 U/mg-protein.

B2: Catenulispora acidiphila NBRC102108 L-proline cis-4-hydroxylase CaPH, SEQ ID NO: 6 (Catenulispora acidiphila DSM 44928) (protein)
chain: MRTQYVAALELDEGRLAKDLETSASFNYSEAYSNYLIGGPWKSAMLYSAGGDAGDGLLTDYDYRQSSDFTDYGRQMPYLQELISTSVDLSRLTFVRLARFAKSVIVPHRDFLELEEIPEDKRSAHRLHIPLATHEECFFSEDNVVYRMRAGELWYFDASRIHSVVSFAEEPRIHLIFDFADRPGAGSLVTVPGEPEGAGVPAASAVDRPQLSDAERAALARLADVLTMDTFSEIFSVLVKKHFRRDGGEHFVWDTLTALARACPDPAVLPHTQELRRYFTLERPSGSGQA
B2: in series [1], the Km came out at 8870 µM and the Vmax is 0.02 U/mg-protein.

B3: Sinorhizobium meliloti 1021 L-proline cis-4-hydroxylase SmPH, SEQ ID NO: 10 (Sinorhizobium meliloti 1021) (protein)
chain: MSTHFLGKVKFDEARLAEDLSTLEVAEFSSAYSDFACGKWEACVLRNRTGMQEEDIVVSHNAPALATPLSKSLPYLNELVETHFDCSAVRYTRIVRVSENACIIPHSDYLELDETFTRLHLVLDTNSGCANTEEDKIFHMGLGEIWFLDAMLPHSAACFSKTPRLHLMIDFEATAFPESFLRNVEQPVTTRDMVDPRKELTDEVIEGILGFSIIISEANYREIVSILAKLHFFYKADCRSMYDWLKEICKRRGDPALIEKTASLERFFLGHRERGEVMTY
Take B3: in series [1], the Km is 580 µM. Further, in series [2], the Km is 310 µM and the Vmax is on record as 0.03 U/mg-protein.
